B1: MutS (natural protein, E. coli, UniProt P23909 1-853, looked up)
chain: MSAIENFDAHTPMMQQYLRLKAQHPEILLFYRMGDFYELFYDDAKRASQLLDISLTKRGASAGEPIPMAGIPYHAVENYLAKLVNQGESVAICEQIGDPATSKGPVERKVVRIVTPGTISDEALLQERQDNLLAAIWQDSKGFGYATLDISSGRFRLSEPADRETMAAELQRTNPAELLYAEDFAEMSLIEGRRGLRRRPLWEFEIDTARQQLNLQFGTRDLVGFGVENAPRGLCAAGCLLQYAKDTQRTTLPHIRSITMEREQDSIIMDAATRRNLEITQNLAGGAENTLASVLDCTVTPMGSRMLKRWLHMPVRDTRVLLERQQTIGALQDFTAGLQPVLRQVGDLERILARLALRTARPRDLARMRHAFQQLPELRAQLETVDSAPVQALREKMGEFAELRDLLERAIIDTPPVLVRDGGVIASGYNEELDEWRALADGATDYLERLEVRERERTGLDTLKVGFNAVHGYYIQISRGQSHLAPINYMRRQTLKNAERYIIPELKEYEDKVLTSKGKALALEKQLYEELFDLLLPHLEALQQSASALAELDVLVNLAERAYTLNYTCPTFIDKPGIRITEGRHPVVEQVLNEPFIANPLNLSPQRRMLIITGPNMGGKSTYMRQTALIALMAYIGSYVPAQKVEIGPIDRIFTRVGAADDLASGRSTFMVEMTETANILHNATEYSLVLMDEIGRGTSTYDGLSLAWACAENLANKIKALTLFATHYFELTQLPEKMEGVANVHLDALEHGDTIAFMHSVQDGAASKSYGLAVAALAGVPKEVIKRARQKLRELESISPNAAATQVDGTQMSLLSVPEETSPAVEALENLDPDSLTPRQALEWIYRLKSLV
B2: his-MutL (natural protein, E. coli, UniProt P23367 1-615, looked up)
chain: MPIQVLPPQLANQIAAGEVVERPASVVKELVENSLDAGATRIDIDIERGGAKLIRIRDNGCGIKKDELALALARHATSKIASLDDLEAIISLGFRGEALASISSVSRLTLTSRTAEQQEAWQAYAEGRDMNVTVKPAAHPVGTTLEVLDLFYNTPARRKFLRTEKTEFNHIDEIIRRIALARFDVTINLSHNGKIVRQYRAVPEGGQKERRLGAICGTAFLEQALAIEWQHGDLTLRGWVADPNHTTPALAEIQYCYVNGRMMRDRLINHAIRQACEDKLGADQQPAFVLYLEIDPHQVDVNVHPAKHEVRFHQSRLVHDFIYQGVLSVLQQQLETPLPLDDEPQPAPRSIPENRVAAGRNHFAEPAAREPVAPRYTPAPASGSRPAAPWPNAQPGYQKQQGEVYRQLLQTPAPMQKLKAPEPQEPALAANSQSFGRVLTIVHSDCALLERDGNISLLSLPVAERWLRQAQLTPGEAPVCAQPLLIPLRLKVSAEEKSALEKAQSALAELGIDFQSDAQHVTIRAVPLPLRQQNLQILIPELIGYLAKQSVFEPGNIAQWIARNLMSEHAQWSMAQAITLLADVERLCPQLVKTPPGGLLQSVDLHPAIKALKDE

The data set “atomic force microscopy” concerns the molecule itself. Nature of the data set: atomic force microscopy.
The data set “MutS” deals with B1. Nature of the data set: atomic force microscopy.

Several values for one entry are separate records, joined by “and”; a condition that tells them apart may be missing. Identical values can stand only once.

As to B1, the “stoichiometry N” value in the data set “atomic force microscopy” was 2 and 4. Regarding B2, the binding result with MutS is “binds”.
